Holding throughout (details): both partners purified
Assay [1] deals with T1, BCMAECD-Fc (dimerized, Fc-tagged human BCMA extracellular domain) (human, UniProt Q02223-1).
T1 construct: B-cell maturation antigen (BCMA), human, extracellular domain; also called Fc-tagged human BCMAECD
Briefly: SPR; Biacore 8K, 25 °C, 10 mM HEPES pH 7.4, 150 mM NaCl, 0.05% Tween 20; BCMAECD-Fc immobilised by amine coupling on CM5; nanobodies as analytes (five two-fold dilutions); Langmuir model for Nb1 and Nb2, heterogeneous ligand model for NbT. A general note: In SPR one partner is held on a chip, and binding of the other changes the refractive index at the surface.

Assay [2] has as its target T2, BCMAECD-His (monomeric, His-tagged human BCMA extracellular domain) (Homo sapiens, UniProt Q02223-1).
T2 construct: B-cell maturation antigen (BCMA), human, extracellular domain; also called His-tagged human BCMAECD
Briefly: SPR; Biacore 8K, 25 °C, 10 mM HEPES pH 7.4, 150 mM NaCl, 0.05% Tween 20; BCMAECD-His immobilised by amine coupling on CM5; nanobodies as analytes (five two-fold dilutions); Langmuir model for Nb1 and Nb2, heterogeneous ligand model for NbT.

Assay [3] concerns the target T3, BCMAECD (synthesized extracellular domain of human B-cell maturation antigen, residues 1-54) (human, UniProt Q02223-1).
T3 construct: B-cell maturation antigen (BCMA), human, extracellular domain, residues 1-54 of UniProt Q02223-1; synthesized, without glycosylation; calculated Mw 5.9 kDa; also called BCMA extracellular domain; BCMA ectodomain; source: synthetic peptide (GL Biochem, Shanghai)
In words: AUC; sedimentation velocity; complexes formed by mixing nanobody with excess BCMAECD (molar ratio 1:4, overnight at 4 °C); 1 mg/ml, 45,000 rpm, 20 mM Tris pH 8.0, 100 mM NaCl, 4 °C.

Assay [4] concerns the target T3, BCMAECD (synthesized extracellular …). In words: SEC; nanobody-BCMAECD complexes (mixed 1:4, overnight at 4 °C, Superdex 75). On the technique in general: In gel filtration, larger molecules generally elute earlier.

T3 sequence (Q02223 1-54): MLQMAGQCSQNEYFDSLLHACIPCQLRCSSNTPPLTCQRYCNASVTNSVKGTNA
T2 sequence (Q02223 1-54): as above
T1 sequence (Q02223 1-54): as above

B1: Nb1 (anti-BCMA nanobody 1 of the cilta-cel CAR) (VHH)
VHH: QVKLEESGGGLVQAGRSLRLSCAASEHTFSSHVMGWFRQAPGKERESVAVIGWRDISTSYADSVKGRFTISRDNAKKTLYLQMNSLKPEDTAVYYCAARRIDAADFDSWGQGTQVTVSS
notes: VHH from a phage display library of llamas immunized with BCMA; calculated Mw 13.9 kDa; source: provided by GenScript
Usually Kd stands for the constant that tells how readily two partners part at equilibrium. What is called stoichiometry N is the number of molecules, sites or subunits per partner or assembly. For the molecule B1, the Kd in assay [1] was 0.67 nM; in assay [2] it was 3.9 nM. The entries for the “stoichiometry N” value in assay [3] and in assay [4] were 1 Nb1 per BCMAECD (printed 2:2) and ~1 Nb1 per BCMAECD (printed 2:2), respectively.

B2: Nb2 (anti-BCMA nanobody 2 of the cilta-cel CAR) (VHH)
VHH: EVQLVESGGGLVQAGGSLRLSCAASGRTFTMGWFRQAPGKEREFVAAISLSPTLAYYAESVKGRFTISRDNAKNTVVLQMNSLKPEDTALYYCAADRKSVMSIRPDYWGQGTQVTVSS
notes: VHH from a phage display library of llamas immunized with BCMA; calculated Mw 13.6 kDa; source: provided by GenScript
On to B2, for which the Kd in assay [1] came out at 3.7 nM; in assay [2], 4.2 nM. Also, the “stoichiometry N” value in assay [3] was 1 Nb2 per BCMAECD (printed 1:1); in assay [4], ~1 Nb2 per BCMAECD (printed 1:1).

(Values after paper PMC10703879, “Antigen-induced chimeric antigen receptor multimerization amplifies on-tumor cytotoxicity” (Signal Transduction and Targeted Therapy, 2023).)
